The values below come from patent US20240141072A1 (published 2024).

The Kd is a measure of binding affinity in units of concentration. A low value points to tighter binding.

Sequences and labels used below:
B1: 1C03 anti-DLL3 trispecific protein (other)
chain: EVQLVESGGGLVQPGGSLTLSCVASGSTSSINAMAWYRRAPGKQRELVAGISSDNSKVYADSVKGRFTISRDNAKNSVYLQMNSLRAEDTAVYYCYYFRTVGGSSMRYWGQGTLVTVSS
notes: not shown: linker 1808, anti-albumin sdAb, linker 1808, anti-CD3 fragment, His6 1819
B2: 2E010 anti-DLL3 trispecific protein (other)
chain: B1 chain with N55G, R99H, G102S
notes: as for B1
B3: 2E011 anti-DLL3 trispecific protein (other)
chain: B1 chain with M34I, A35G, N55G, K57S, T100R, G102S
notes: as for B1
B4: 2A04 anti-DLL3 trispecific protein (other)
chain: B1 chain with N55G, A60T, V101T, G102S
notes: as for B1
B5: 2E01 anti-DLL3 trispecific protein (other)
chain: EVQLVESGGGLVQPGGSLTLSCVASGSTSSINAMGWYRRAPFKQGELPAGISPDGTKAYADSAKVRFTISRDNAKNSVYLQMNSLRAEDTAVYYCYYFHTVCGTSMGYWGQGTLVTVSS
notes: as for B1
B6: 3H06 anti-DLL3 trispecific protein (other)
chain: EVQLVESGGGLVQPGGSLTLSCAASGSSVSQLSMAWYRQAPGKKRELVAGISADGSTDYFDSVKGRFTISRDNAKNSVYLQMNSLRAEDTAVYYCYAYRWTTRGTYWGQGTLVTVSS
notes: as for B1
B7: 3C04 anti-DLL3 trispecific protein (other)
chain: B6 chain with S28H, Q31F, S56P, F60I, T101D, G104Y
notes: as for B1
B8: 3H011 anti-DLL3 trispecific protein (other)
chain: B6 chain with S30K, Q31F, D58V, F60I, T101P, G104Y
notes: as for B1
B9: 4B07 anti-DLL3 trispecific protein (other)
chain: B6 chain with S30G, Q31F, D58V, F60I, G104Y
notes: as for B1
B10: 4C06 anti-DLL3 trispecific protein (other)
chain: B6 chain with G26N, Q31K, D58A, F60I, T101S, G104Y
notes: as for B1
B11: 3D07 anti-DLL3 trispecific protein (other)
chain: B6 chain with S30R, Q31F, F60I, R99S, G104Y
notes: as for B1
B12: 4B011 anti-DLL3 trispecific protein (other)
chain: B6 chain with S30T, Q31F, D58V, F60I
notes: as for B1
B13: 4H04 anti-DLL3 trispecific protein (other)
chain: B6 chain with S30K, Q31F, I51V, F60I, R99E, G104Y
notes: as for B1
B14: 4E02 anti-DLL3 trispecific protein (other)
chain: B6 chain with S28Q, Q31F, D58V, F60I, T101S, G104Y
notes: as for B1
B15: 2C04 anti-DLL3 trispecific protein (other)
chain: B1 chain with I31R, A35G, N55G, V58L, G102L
notes: as for B1
B16: 3A02 anti-DLL3 trispecific protein (other)
chain: B6 chain with Q31F, M34L, D58A, F60I, T101R, G104Y
notes: as for B1
B17: 3A011 anti-DLL3 trispecific protein (other)
chain: B6 chain with Q31F, M34L, A53T, F60I, T101R, G104Y
notes: as for B1
B18: 4H03 anti-DLL3 trispecific protein (other)
chain: B6 chain with S28R, Q31F, D58S, F60I, G104Y
notes: as for B1
B19: 4D011 anti-DLL3 trispecific protein (other)
chain: B6 chain with S30R, Q31F, A53V, F60I, T101R, G104Y
notes: also called 4D11; not shown: linker 1808, anti-albumin sdAb, linker 1808, anti-CD3 fragment, His6 1819
B20: 4H01 anti-DLL3 trispecific protein (other)
chain: B6 chain with Q31F, D54N, F60Y, T101R, G104Y
notes: as for B1
B21: 4G010 anti-DLL3 trispecific protein (other)
chain: B6 chain with S27H, Q31F, F60I, D61A, T101S, G104Y
notes: as for B1
B22: 4H08 anti-DLL3 trispecific protein (other)
chain: B6 chain with S30K, Q31F, F60V, T101S, G104Y
notes: as for B1
B23: 4H07 anti-DLL3 trispecific protein (other)
chain: B6 chain with S27R, Q31F, D54N, F60I, T101S, G104Y
notes: as for B1
B24: 4G07 anti-DLL3 trispecific protein (other)
chain: B6 chain with Q31F, M34V, D54N, F60I, T102N, G104Y
notes: as for B1
B25: 4G09 anti-DLL3 trispecific protein (other)
chain: B6 chain with S28R, Q31F, A53Y, F60I, G104R
notes: as for B1
B26: 4H05 anti-DLL3 trispecific protein (other)
chain: B6 chain with Q31R, D54R, F60I, G104S
notes: as for B1
B27: 4G08 anti-DLL3 trispecific protein (other)
chain: B6 chain with S30R, Q31F, A53T, F60I, G104Y, T105R
notes: as for B1
B28: 4G011 anti-DLL3 trispecific protein (other)
chain: B6 chain with S30R, Q31F, F60I, D61G, T101S, G104Y
notes: as for B1
B29: 4H09 anti-DLL3 trispecific protein (other)
chain: B6 chain with Q31K, F60R, T102Y, G104Y
notes: as for B1
B30: 4H06 anti-DLL3 trispecific protein (other)
chain: B6 chain with S27R, Q31F, D58I, F60I, G104Y
notes: as for B1

Substitutions are numbered along the chain they refer to.

The target in one experiment is T1, human DLL3 on DLL3-expressing tumor cell lines (human, UniProt Q9NYJ7 27-618).
T1 sequence: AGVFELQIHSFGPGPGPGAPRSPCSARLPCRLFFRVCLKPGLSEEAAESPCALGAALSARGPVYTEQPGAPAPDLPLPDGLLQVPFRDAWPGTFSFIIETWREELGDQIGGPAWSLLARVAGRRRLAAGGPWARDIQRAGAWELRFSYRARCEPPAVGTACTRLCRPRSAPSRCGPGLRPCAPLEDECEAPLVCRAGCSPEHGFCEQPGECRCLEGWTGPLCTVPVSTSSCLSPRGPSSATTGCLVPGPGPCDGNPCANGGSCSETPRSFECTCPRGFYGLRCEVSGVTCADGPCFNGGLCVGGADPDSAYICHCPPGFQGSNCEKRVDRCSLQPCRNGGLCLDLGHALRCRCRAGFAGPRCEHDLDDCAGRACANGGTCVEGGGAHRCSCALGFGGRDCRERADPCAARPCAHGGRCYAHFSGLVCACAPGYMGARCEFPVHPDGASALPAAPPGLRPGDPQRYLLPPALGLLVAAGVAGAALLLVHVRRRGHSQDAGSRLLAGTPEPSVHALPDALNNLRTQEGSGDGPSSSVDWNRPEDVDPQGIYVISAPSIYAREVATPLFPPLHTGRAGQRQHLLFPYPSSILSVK
Briefly: cell-based or functional assay.
Regarding B1, the “DMS-153 TDCC EC50” value came out at 0.096 nM.

Consider B2, for which the “DMS-153 TDCC EC50” value turned out to be 0.031 nM.

On to B3, for which the “DMS-153 TDCC EC50” value was found to be 0.19 nM.

Regarding B4, the “DMS-153 TDCC EC50” value was 0.081 nM.

Regarding B5, the “DMS-153 TDCC EC50” value is 0.033 nM.

B6: the “DMS-153 TDCC EC50” value was 0.12 nM.

With B7, the “DMS-153 TDCC EC50” value was determined as 0.052 nM.

Consider B8, for which the “DMS-153 TDCC EC50” value came to 0.12 nM.

For the molecule B9, the “DMS-153 TDCC EC50” value stood at 0.067 nM.

On to B10, for which the “DMS-153 TDCC EC50” value is 0.068 nM.

Take B11: the “DMS-153 TDCC EC50” value worked out at 0.061 nM.

Take B12: the “DMS-153 TDCC EC50” value was determined as 0.048 nM.

For the molecule B13, the “DMS-153 TDCC EC50” value is 0.051 nM.

Regarding B14, the “DMS-153 TDCC EC50” value is 0.041 nM.

For the next experiment, the target named is T2, biotinylated human DLL3 protein expressed as a human IgG1 fusion protein (human, UniProt Q9NYJ7 27-492, limits assumed, biotinylated).
T2 sequence: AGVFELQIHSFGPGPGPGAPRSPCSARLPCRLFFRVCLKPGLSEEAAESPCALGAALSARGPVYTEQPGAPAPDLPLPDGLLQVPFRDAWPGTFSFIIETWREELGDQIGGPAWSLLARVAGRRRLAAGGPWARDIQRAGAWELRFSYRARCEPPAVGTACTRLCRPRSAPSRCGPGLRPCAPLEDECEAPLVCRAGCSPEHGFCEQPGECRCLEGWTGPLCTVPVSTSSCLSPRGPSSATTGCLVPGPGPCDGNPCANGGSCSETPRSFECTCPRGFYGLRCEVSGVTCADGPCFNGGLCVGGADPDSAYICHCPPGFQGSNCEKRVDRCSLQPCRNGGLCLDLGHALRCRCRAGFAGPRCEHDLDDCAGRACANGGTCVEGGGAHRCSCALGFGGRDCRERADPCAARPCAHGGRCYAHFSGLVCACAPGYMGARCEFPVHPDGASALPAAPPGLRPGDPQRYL
Briefly: Octet BLI, single 50 nM. In outline: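 First, biotinylated DLL3-Fc fusion is loaded onto the tips. Next, conditioned medium carrying trispecific protein at known concentration is applied as analyte. Affinity is then derived from the recorded binding.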
In general terms: Biolayer interferometry detects binding as a change in optical thickness at a sensor tip.
As to B1, the affinity, expressed as Kd, was 6.1 nM.

Regarding B2, the dissociation constant (Kd) is 4 nM.

Regarding B15, the Kd worked out at 6.8 nM.

In turn, B3 came in with a Kd of 2.4 nM.

The molecule B4 yielded a Kd of 5.6 nM.

As for B5, binding was characterised by a dissociation constant (Kd) of 4.1 nM. This Kd and that of the molecule before are within 1.5-fold of each other.

B16: the affinity, expressed as Kd, was 8.1 nM. Against the preceding molecule, the Kd is about 2-fold higher.

Take B17: binding was characterised by a dissociation constant (Kd) of 6.8 nM.

B6 gave an equilibrium dissociation constant (Kd) of 8 nM.

As to B18, binding was put at a Kd of 13 nM.

B19 registered a Kd of 5.8 nM. Compared with the last molecule, the Kd is about 2.2-fold lower.

B7 showed a Kd of 4.5 nM.

Consider B20, for which binding was put at a Kd of 21 nM.

Molecule B8 had an equilibrium dissociation constant (Kd) of 2.7 nM.

Molecule B9 returned an equilibrium dissociation constant (Kd) of 4.3 nM.

As for B21, the Kd was 9.9 nM.

Take B22: the equilibrium dissociation constant (Kd) was 8.9 nM. This Kd and that of the molecule before are within 1.5-fold of each other.

B23 came in with a Kd of 16 nM. This Kd lies about 1.8-fold higher than the previous one.

The molecule B10 came in with a Kd of 6.8 nM. Against the preceding molecule, the Kd is about 2.4-fold lower.

Consider B11, for which binding was put at a Kd of 5.9 nM. This Kd and that of the molecule before are within 1.5-fold of each other.

B24 came in with a Kd of 18 nM. Compared with the last molecule, the Kd is about 3.1-fold higher.

As for B12, binding was characterised by a dissociation constant (Kd) of 3.9 nM. Compared with the last molecule, the Kd is about 4.6-fold lower.

For B25, binding was characterised by a dissociation constant (Kd) of 8.8 nM.

Regarding B26, the Kd stood at 64 nM.

Take B27: the Kd is 7.6 nM.

Take B28: the affinity, expressed as Kd, was 7.5 nM.

For the molecule B29, binding was put at a Kd of 16 nM. This Kd lies about 2.1-fold higher than the previous one.

B13: binding was put at a Kd of 6.1 nM.

B14 showed a Kd of 3.8 nM.

On to B30, for which the affinity, expressed as Kd, was 18 nM. This Kd is about 4.7-fold higher than that of the molecule before.

For a further experiment, the target named is T3, cynomolgus DLL3 (cynomolgus, UniProt A0A2K5WSR1 27-490).
T3 construct: also called cyDLL3
T3 sequence: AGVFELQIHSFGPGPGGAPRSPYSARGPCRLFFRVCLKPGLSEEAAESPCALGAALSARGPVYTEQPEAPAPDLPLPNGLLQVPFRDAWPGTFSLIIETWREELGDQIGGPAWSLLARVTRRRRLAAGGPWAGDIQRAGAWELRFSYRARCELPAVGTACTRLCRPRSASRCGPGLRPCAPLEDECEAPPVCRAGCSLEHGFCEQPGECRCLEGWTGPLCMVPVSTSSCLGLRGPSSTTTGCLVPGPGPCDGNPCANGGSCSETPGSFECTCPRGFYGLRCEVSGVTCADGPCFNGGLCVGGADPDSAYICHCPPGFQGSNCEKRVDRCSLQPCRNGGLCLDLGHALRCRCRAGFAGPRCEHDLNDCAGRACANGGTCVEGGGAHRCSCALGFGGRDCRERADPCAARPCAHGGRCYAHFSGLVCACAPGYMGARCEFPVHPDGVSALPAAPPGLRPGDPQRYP
Briefly: Octet BLI, single 60 nM.
B16 displayed a Kd of 9.5 nM.

As to B17, the affinity, expressed as Kd, was 8.8 nM.

The molecule B7 yielded a Kd of 5.7 nM.

Another experiment has as its target T2, biotinylated human DLL3 protein …. Description: Octet BLI, 60/20/6.67/2.22 nM. As to the method:
Using the conditioned medium with known concentrations of the anti-DLL3 trispecific proteins, the binding affinities of the anti-DLL3 trispecific proteins toward human DLL3 protein were measured using a method where biotinylated version of human DLL3 protein were expressed as a human IgG1 fusion protein, and the binding affinity measurement was carried out in an Octet instrument with streptavidin tips.
Molecule B16 registered a Kd of 7.8 nM.

Regarding B17, binding was put at a Kd of 7.3 nM. The Kd values of the last two molecules are within 1.5-fold of each other.

Turning to B7, the Kd worked out at 4 nM.

The next experiment concerns the target T1, human DLL3 on DLL3-expressing tumor …. Description: cell-based or functional assay. The source holds these as a separate data set.
With B15, the “DMS-153 TDCC EC50” value was 0.043 nM.

B19: the “DMS-153 TDCC EC50” value is 0.098 nM.
